Results: patent US20090104178A1 (published 2009)
Residue numbers refer to the chain shown, from its start.

Target: Purified recombinant EV CrmD protein (ectromelia virus)

B1: hCXCL13 (ligand)
chemokine: VLEVYYTSLRCRCVQESSVFIPRRFIDRIQILPRGNGCPRKEIIVWKKNKSIVCVDPQAEWIQRMMEVLRKRSSSTLPVPVFKRKIP
With B1 the Kd was 7.4 nM.

B2: hCCL28 (ligand)
chemokine: SEAILPIASSCCTEVSHHISRRLLERVNMCRIQRADGDCDLAAVILHVKRRRICVSPHNHTVKQWMKVQAAKKNGKGNVCHRKKHHGKRNSNRAHQGKHETYGHKTPY
In the case of B2, the Kd is reported as 2.8 nM.

B3: mCCL25 (ligand)
chain: QGAFEDCCLGYQHRIKWNVLRHARNYHQQEVSGSCNLRAVRFYFRQKVVCGNPEDMNVKRAMRILTARKRLVHWKSASDSQTERKKSNHMKSKVENPNSTSVRSATLGHPRMVMMPRKTNN
B3 was tested, and the Kd was 3.2 nM.

B4: mCXCL14 (ligand)
chain: SKCKCSRKGPKIRYSDVKKLEMKPKYPHCEEKMVIVTTKSMSRYRGQEHCLHPKLQSTKRFIKWYNAWNEKRRVYEE
B4 was tested, and the Kd was 3.2 nM.

B5: hCXCL14 (ligand)
chemokine: B4 chain with V36I, M41V
B5 gave a Kd of 7.1 nM.

B6: mCCL27 (ligand)
chain: LPLPSSTSCCTQLYRQPLPSRLLRRIVHMELQEADGDCHLQAVVLHLARRSVCVHPQNRSLARWLERQGKRLQGTVPSLNLVLQKKMYSHPQQQN
B6 was tested, and the Kd was 8.5 nM.
